Positions count from the first letter of the chain named. Names and notes keep the numbering of the source.
B1: CE115HA000/GLS3000 H34S one-arm antibody (antibody, human IgG1, kappa, L234A L235A, N297A, name in Kabat numbering)
heavy: QVQLVESGGGVVQPGRSLRLSCAASGFTFSNAWMHWVRQAPGKGLEWVAQIKAKSNNYATYYAESVKGRFTISRDDSKNSLYLQMNSLKTEDTAVYYCRYVHYGAYYGVDAWGQGTTVTVSSASTKGPSVFPLAPSSKSTSGGTAALGCLVKDYFPEPVTVSWNSGALTSGVHTFPAVLQSSGLYSLSSVVTVPSSSLGTQTYICNVNHKPSNTKVDKKVEPKSCDKTHTCPPCPAPEAAGGPSVFLFPPKPKDTLMISRTPEVTCVVVDVSHEDPEVKFNWYVDGVEVHNAKTKPREEQYASTYRVVSVLTVLHQDWLNGKEYKCKVSNKALPAPIEKTISKAKGQPREPQVYTLPPSRCELTKNQVSLSCAVKGFYPSDIAVEWESNGQPENNYKTTPPVLDSDGSFFLVSKLTVDKSRWQQGNVFSCSVMHEALHNHYTQKSLSLSPDYKDDDDK
chain: EPKSSDKTHTCPPCPAPELLGGPSVFLFPPKPKDTLMISRTPEVTCVVVDVSHEDPEVKFNWYVDGVEVHNAKTKPREEQYNSTYRVVSVLTVLHQDWLNGKEYKCKVSNKALPAPIEKTISKAKGQPREPQVCTLPPSRDELTKNQVSLWCLVKGFYPSDIAVEWESNGQPENNYKTTPPVLDSDGSFFLYSKLTVDKSRWQQGNVFSCSVMHEALHNRYTQKSLSLSP
light: DIVMTQSPLSLPVTPGEPASISCRSSQSLVHSNRNTYLSWYQQKPGQAPRLLIYKVSNRFSGVPDRFSGSGSGTDFTLKISRVEAEDVGVYYCGQGTQVPYTFGQGTKLEIKRTVAAPSVFIFPPSDEQLKSGTASVVCLLNNFYPREAKVQWKVDNALQSGNSQESVTEQDSKDSTYSLSSTLTLSKADYEKHKVYACEVTHQGLSSPVTKSFNRGEC
notes: one-arm IgG1
B2: CE115HA000/GLS3000 H34T one-arm antibody (antibody, human IgG1, kappa, L234A L235A, N297A, name in Kabat numbering)
heavy: B1 heavy
chain: B1 chain
light: B1 light with S39T
notes: one-arm IgG1
B3: CE115HA000/GLS3000 H34V one-arm antibody (antibody, human IgG1, kappa, L234A L235A, N297A, name in Kabat numbering)
heavy: B1 heavy
chain: B1 chain
light: B1 light with S39V
notes: one-arm IgG1
B4: CE115HA000/GLS3000 H34W one-arm antibody (antibody, human IgG1, kappa, L234A L235A, N297A, name in Kabat numbering)
heavy: B1 heavy
chain: B1 chain
light: B1 light with S39W
notes: one-arm IgG1
B5: CE115HA000/GLS3000 H34Y one-arm antibody (antibody, human IgG1, kappa, L234A L235A, N297A, name in Kabat numbering)
heavy: B1 heavy
chain: B1 chain
light: B1 light with S39Y
notes: one-arm IgG1
B6: CE115HA000/GLS3000 K50D one-arm antibody (antibody, human IgG1, kappa, L234A L235A, N297A, name in Kabat numbering)
heavy: B1 heavy
chain: B1 chain
light: B1 light with S39H, K55D
notes: one-arm IgG1
B7: CE115HA000/GLS3000 K50E one-arm antibody (antibody, human IgG1, kappa, L234A L235A, N297A, name in Kabat numbering)
heavy: B1 heavy
chain: B1 chain
light: B1 light with S39H, K55E
notes: one-arm IgG1
B8: CE115HA000/GLS3000 K50G one-arm antibody (antibody, human IgG1, kappa, L234A L235A, N297A, name in Kabat numbering)
heavy: B1 heavy
chain: B1 chain
light: B1 light with S39H, K55G
notes: one-arm IgG1
B9: CE115HA000/GLS3000 K50L one-arm antibody (antibody, human IgG1, kappa, L234A L235A, N297A, name in Kabat numbering)
heavy: B1 heavy
chain: B1 chain
light: B1 light with S39H, K55L
notes: one-arm IgG1
B10: CE115HA000/GLS3000 K50P one-arm antibody (antibody, human IgG1, kappa, L234A L235A, N297A, name in Kabat numbering)
heavy: B1 heavy
chain: B1 chain
light: B1 light with S39H, K55P
notes: one-arm IgG1
B11: CE115HA000/GLS3000 K50Q one-arm antibody (antibody, human IgG1, kappa, L234A L235A, N297A, name in Kabat numbering)
heavy: B1 heavy
chain: B1 chain
light: B1 light with S39H, K55Q
notes: one-arm IgG1
B12: CE115HA000/GLS3000 K50R one-arm antibody (antibody, human IgG1, kappa, L234A L235A, N297A, name in Kabat numbering)
heavy: B1 heavy
chain: B1 chain
light: B1 light with S39H, K55R
notes: one-arm IgG1
B13: CE115HA000/GLS3000 K50S one-arm antibody (antibody, human IgG1, kappa, L234A L235A, N297A, name in Kabat numbering)
heavy: B1 heavy
chain: B1 chain
light: B1 light with S39H, K55S
notes: one-arm IgG1
B14: CE115HA000/GLS3000 K50T one-arm antibody (antibody, human IgG1, kappa, L234A L235A, N297A, name in Kabat numbering)
heavy: B1 heavy
chain: B1 chain
light: B1 light with S39H, K55T
notes: one-arm IgG1
B15: CE115HA000/GLS3000 K50Y one-arm antibody (antibody, human IgG1, kappa, L234A L235A, N297A, name in Kabat numbering)
heavy: B1 heavy
chain: B1 chain
light: B1 light with S39H, K55Y
notes: one-arm IgG1
B16: CE115HA000/GLS3000 K107E one-arm antibody (antibody, human IgG1, kappa, L234A L235A, N297A, name in Kabat numbering)
heavy: B1 heavy
chain: B1 chain
light: B1 light with S39H, K112E
notes: one-arm IgG1
B17: CE115HA000/GLS3000 L33D one-arm antibody (antibody, human IgG1, kappa, L234A L235A, N297A, name in Kabat numbering)
heavy: B1 heavy
chain: B1 chain
light: B1 light with L38D, S39H
notes: one-arm IgG1
B18: CE115HA000/GLS3000 L33E one-arm antibody (antibody, human IgG1, kappa, L234A L235A, N297A, name in Kabat numbering)
heavy: B1 heavy
chain: B1 chain
light: B1 light with L38E, S39H
notes: one-arm IgG1
B19: CE115HA000/GLS3000 L33F one-arm antibody (antibody, human IgG1, kappa, L234A L235A, N297A, name in Kabat numbering)
heavy: B1 heavy
chain: B1 chain
light: B1 light with L38F, S39H
notes: one-arm IgG1
B20: CE115HA000/GLS3000 L33I one-arm antibody (antibody, human IgG1, kappa, L234A L235A, N297A, name in Kabat numbering)
heavy: B1 heavy
chain: B1 chain
light: B1 light with L38I, S39H
notes: one-arm IgG1
B21: CE115HA000/GLS3000 L33M one-arm antibody (antibody, human IgG1, kappa, L234A L235A, N297A, name in Kabat numbering)
heavy: B1 heavy
chain: B1 chain
light: B1 light with L38M, S39H
notes: one-arm IgG1
B22: CE115HA000/GLS3000 L33P one-arm antibody (antibody, human IgG1, kappa, L234A L235A, N297A, name in Kabat numbering)
heavy: B1 heavy
chain: B1 chain
light: B1 light with L38P, S39H
notes: one-arm IgG1
B23: CE115HA000/GLS3000 L33V one-arm antibody (antibody, human IgG1, kappa, L234A L235A, N297A, name in Kabat numbering)
heavy: B1 heavy
chain: B1 chain
light: B1 light with L38V, S39H
notes: one-arm IgG1
B24: CE115HA000/GLS3000 N53E one-arm antibody (antibody, human IgG1, kappa, L234A L235A, N297A, name in Kabat numbering)
heavy: B1 heavy
chain: B1 chain
light: B1 light with S39H, N58E
notes: one-arm IgG1
B25: CE115HA000/GLS3000 N53F one-arm antibody (antibody, human IgG1, kappa, L234A L235A, N297A, name in Kabat numbering)
heavy: B1 heavy
chain: B1 chain
light: B1 light with S39H, N58F
notes: one-arm IgG1
B26: CE115HA000/GLS3000 N53G one-arm antibody (antibody, human IgG1, kappa, L234A L235A, N297A, name in Kabat numbering)
heavy: B1 heavy
chain: B1 chain
light: B1 light with S39H, N58G
notes: one-arm IgG1
B27: CE115HA000/GLS3000 N53H one-arm antibody (antibody, human IgG1, kappa, L234A L235A, N297A, name in Kabat numbering)
heavy: B1 heavy
chain: B1 chain
light: B1 light with S39H, N58H
notes: one-arm IgG1
B28: CE115HA000/GLS3000 N53I one-arm antibody (antibody, human IgG1, kappa, L234A L235A, N297A, name in Kabat numbering)
heavy: B1 heavy
chain: B1 chain
light: B1 light with S39H, N58I
notes: one-arm IgG1
B29: CE115HA000/GLS3000 N53K one-arm antibody (antibody, human IgG1, kappa, L234A L235A, N297A, name in Kabat numbering)
heavy: B1 heavy
chain: B1 chain
light: B1 light with S39H, N58K
notes: one-arm IgG1
B30: CE115HA000/GLS3000 N53L one-arm antibody (antibody, human IgG1, kappa, L234A L235A, N297A, name in Kabat numbering)
heavy: B1 heavy
chain: B1 chain
light: B1 light with S39H, N58L
notes: one-arm IgG1
B31: CE115HA000/GLS3000 N53M one-arm antibody (antibody, human IgG1, kappa, L234A L235A, N297A, name in Kabat numbering)
heavy: B1 heavy
chain: B1 chain
light: B1 light with S39H, N58M
notes: one-arm IgG1
B32: CE115HA000/GLS3000 N53P one-arm antibody (antibody, human IgG1, kappa, L234A L235A, N297A, name in Kabat numbering)
heavy: B1 heavy
chain: B1 chain
light: B1 light with S39H, N58P
notes: one-arm IgG1
B33: CE115HA000/GLS3000 N53Q one-arm antibody (antibody, human IgG1, kappa, L234A L235A, N297A, name in Kabat numbering)
heavy: B1 heavy
chain: B1 chain
light: B1 light with S39H, N58Q
notes: one-arm IgG1
B34: CE115HA000/GLS3000 N53R one-arm antibody (antibody, human IgG1, kappa, L234A L235A, N297A, name in Kabat numbering)
heavy: B1 heavy
chain: B1 chain
light: B1 light with S39H, N58R
notes: one-arm IgG1
B35: CE115HA000/GLS3000 N53S one-arm antibody (antibody, human IgG1, kappa, L234A L235A, N297A, name in Kabat numbering)
heavy: B1 heavy
chain: B1 chain
light: B1 light with S39H, N58S
notes: one-arm IgG1

molecular target: T1, CD3 epsilon homodimer protein (UniProt P07766 23-126); test: SPR (Biacore T200), CD3e homodimer on CM4 chip, antibody as analyte; KD ratio vs unaltered GLS3000;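 further: CD3 epsilon homodimer amine-coupled to the sensor surface, antibodies injected as analyte at 25 °C with HBS-EP+ running buffer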
T1 construct: also called CD3 (CD3 epsilon)
T1 sequence (P07766 23-126): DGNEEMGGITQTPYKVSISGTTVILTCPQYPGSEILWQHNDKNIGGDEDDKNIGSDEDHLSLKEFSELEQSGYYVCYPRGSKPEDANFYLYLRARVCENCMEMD

First: B1
Second: B2
The “KD ratio to GLS3000” value of the first is higher: 1.24 ratio for the first, 1.1 ratio for the second.

First: B3
Second: B4
The “KD ratio to GLS3000” value of the first is lower: 1.04 ratio for the first, 8.45 ratio for the second.

First: B5
Second: B6
The “KD ratio to GLS3000” value of the first is lower: 2.44 ratio for the first, 114 ratio for the second.

Compared with B7, B8 is lower in “KD ratio to GLS3000” value: 57.2 ratio for the first, 42.4 ratio for the second.

Compared with B9, B10 is lower in “KD ratio to GLS3000” value: 36.4 ratio for the first, 27.7 ratio for the second.

First: B11
Second: B12
The “KD ratio to GLS3000” value of the first is higher: 8.13 ratio for the first, 1.83 ratio for the second.

First: B13
Second: B14
The “KD ratio to GLS3000” value of the first is higher: 45.3 ratio for the first, 25.1 ratio for the second.

Going from B15 to B16, the “KD ratio to GLS3000” value falls from 195 ratio to 0.95 ratio.

Going from B17 to B18, the “KD ratio to GLS3000” value falls from 37.5 ratio to 0.83 ratio.

Compared with B19, B20 is higher in “KD ratio to GLS3000” value: 0.65 ratio for the first, 0.86 ratio for the second.

Going from B21 to B22, the “KD ratio to GLS3000” value rises from 0.9 ratio to 32.7 ratio.

Going from B23 to B24, the “KD ratio to GLS3000” value rises from 1.26 ratio to 2.47 ratio.

First: B25
Second: B26
The “KD ratio to GLS3000” value of the first is lower: 0.96 ratio for the first, 1.33 ratio for the second.

Compared with B27, B28 is higher in “KD ratio to GLS3000” value: 1.31 ratio for the first, 2.69 ratio for the second.

First: B29
Second: B30
The “KD ratio to GLS3000” value of the first is lower: 1.05 ratio for the first, 1.62 ratio for the second.

Going from B31 to B32, the “KD ratio to GLS3000” value falls from 1.21 ratio to 0.98 ratio.

First: B33
Second: B34
The “KD ratio to GLS3000” value of the first is lower: 1.28 ratio for the first, 1.56 ratio for the second.

With B35 the “KD ratio to GLS3000” value was 0.88 ratio.

From patent publication US20240270846A1 (published 2024)
